Results taken from paper PMC3797800, “The Coordination of Cell Growth during Fission Yeast Mating Requires Ras1-GTP Hydrolysis” (PLoS ONE, 2013).

Biological target: T1, CFP-Ras1 (S. pombe, UniProt P08647 1-219)
T1 construct: Ras1, small GTPase of Schizosaccharomyces pombe; ORF amplified from the start codon to the stop codon and cloned behind CFP; also called Ras1-GTP; source: S. pombe (strain JY1618, Δras1Δgap1), expressed from pREP4x (nmt1 promoter), in living cells; not shown: CFP, N-terminal, kept
T1 sequence (looked up): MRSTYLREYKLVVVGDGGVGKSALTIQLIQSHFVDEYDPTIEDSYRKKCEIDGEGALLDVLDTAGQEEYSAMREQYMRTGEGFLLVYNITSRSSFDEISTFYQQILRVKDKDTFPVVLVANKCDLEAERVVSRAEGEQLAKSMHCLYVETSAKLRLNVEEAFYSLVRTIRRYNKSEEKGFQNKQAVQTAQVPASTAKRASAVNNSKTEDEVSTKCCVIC
Experiment: FRET or BRET; FACS-based FRET (405 nm excitation, 585/42 nm emission), living S. pombe cells co-expressing CFP and YFP fusions; percent of cells with a FRET signal over 0-8 h after 10 μM pheromone
Settings: partners not purified

- fold increase of the percent of cells with a FRET signal, 30 min pheromone against time 0: 2 fold
B1: Gap1-YFP (natural protein, S. pombe, UniProt P33277 1-766, looked up)
chain: MTKRHSGTLSSSVLPQTNRLSLLRNRESTSVLYTIDLDMESDVEDAFFHLDRELHDLKQQISSQSKQNFVLERDVRYLDSKIALLIQNRMAQEEQHEFAKRLNDNYNAVKGSFPDDRKLQLYGALFFLLQSEPAYIASLVRRVKLFNMDALLQIVMFNIYGNQYESREEHLLLSLFQMVLTTEFEATSDVLSLLRANTPVSRMLTTYTRRGPGQAYLRSILYQCINDVAIHPDLQLDIHPLSVYRYLVNTGQLSPSEDDNLLTNEEVSEFPAVKNAIQERSAQLLLLTKRFLDAVLNSIDEIPYGIRWVCKLIRNLTNRLFPSISDSTICSLIGGFFFLRFVNPAIISPQTSMLLDSCPSDNVRKTLATIAKIIQSVANGTSSTKTHLDVSFQPMLKEYEEKVHNLLRKLGNVGDFFEALELDQYIALSKKSLALEMTVNEIYLTHEIILENLDNLYDPDSHVHLILQELGEPCKSVPQEDNCLVTLPLYNRWDSSIPDLKQNLKVTREDILYVDAKTLFIQLLRLLPSGHPATRVPLDLPLIADSVSSLKSMSLMKKGIRAIELLDELSTLRLVDKENRYEPLTSEVEKEFIDLDALYERIRAERDALQDVHRAICDHNEYLQTQLQIYGSYLNNARSQIKPSHSDSKGFSRGVGVVGIKPKNIKSSNTVKLSSQQLKKESVLLNCTIPEFNVSNTYFTFSSPSTDNFVIAVYQRGHSKVLVEVCICLDDVLQRRYASNPVVDLGFLTFEANKLYHLFEQLFLRK
notes: ORF amplified from the start codon, stop codon removed, cloned in front of YFP; source: S. pombe, expressed from pREP3x (nmt1 promoter), in living cells; not shown: YFP, C-terminal, kept
